Source: patent US20230203146A1 (Boehringer Ingelheim, published 2023)
Read-outs that look alike come from different tables or passages of the source.

T1: recombinant mouse Ang2-FLD (mouse, UniProt O35608 275-496, limits assumed)
T1 construct: domain: FLD
T1 sequence (looked up): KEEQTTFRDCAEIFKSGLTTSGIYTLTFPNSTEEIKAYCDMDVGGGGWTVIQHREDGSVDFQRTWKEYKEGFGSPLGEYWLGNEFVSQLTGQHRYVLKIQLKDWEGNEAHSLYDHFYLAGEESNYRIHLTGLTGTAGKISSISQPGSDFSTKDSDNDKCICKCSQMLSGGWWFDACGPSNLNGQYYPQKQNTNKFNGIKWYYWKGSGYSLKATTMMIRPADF

T2: recombinant human Ang2-FLD (human, UniProt O15123 275-496, limits assumed)
T2 construct: domain: FLD; not used
T2 sequence (looked up): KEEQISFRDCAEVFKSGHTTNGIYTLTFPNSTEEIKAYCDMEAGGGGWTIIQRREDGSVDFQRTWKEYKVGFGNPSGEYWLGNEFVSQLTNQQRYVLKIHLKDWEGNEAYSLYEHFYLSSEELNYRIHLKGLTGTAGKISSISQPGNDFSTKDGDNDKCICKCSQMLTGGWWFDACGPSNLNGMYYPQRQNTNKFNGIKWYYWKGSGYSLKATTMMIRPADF

T3: N-terminally FLAG-tagged mouse Ang2 (HEK293T conditioned medium) (mouse, UniProt O35608 19-496)
T3 construct: may be a nucleotide entry; also called mAng2; FLAG-mAng2
T3 sequence: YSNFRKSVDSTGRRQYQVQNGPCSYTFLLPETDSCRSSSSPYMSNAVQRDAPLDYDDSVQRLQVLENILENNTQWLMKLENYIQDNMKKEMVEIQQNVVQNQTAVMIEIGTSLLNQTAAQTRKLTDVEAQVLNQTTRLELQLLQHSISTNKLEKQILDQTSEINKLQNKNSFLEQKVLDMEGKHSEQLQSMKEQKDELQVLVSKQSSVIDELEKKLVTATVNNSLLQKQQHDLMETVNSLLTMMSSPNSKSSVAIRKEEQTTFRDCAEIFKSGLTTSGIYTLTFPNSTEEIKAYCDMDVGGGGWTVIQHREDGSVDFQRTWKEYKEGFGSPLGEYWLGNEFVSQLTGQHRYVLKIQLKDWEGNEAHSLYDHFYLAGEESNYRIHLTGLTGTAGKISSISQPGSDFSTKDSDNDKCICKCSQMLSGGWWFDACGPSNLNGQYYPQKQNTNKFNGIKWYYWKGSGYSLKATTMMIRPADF

T4: N-terminally FLAG-tagged cynomolgus Ang2 (HEK293T conditioned medium) (cynomolgus, UniProt O15123 19-496 (human entry), limits assumed)
T4 construct: may be a nucleotide entry; also called cAng2; FLAG-cAng2
T4 chain: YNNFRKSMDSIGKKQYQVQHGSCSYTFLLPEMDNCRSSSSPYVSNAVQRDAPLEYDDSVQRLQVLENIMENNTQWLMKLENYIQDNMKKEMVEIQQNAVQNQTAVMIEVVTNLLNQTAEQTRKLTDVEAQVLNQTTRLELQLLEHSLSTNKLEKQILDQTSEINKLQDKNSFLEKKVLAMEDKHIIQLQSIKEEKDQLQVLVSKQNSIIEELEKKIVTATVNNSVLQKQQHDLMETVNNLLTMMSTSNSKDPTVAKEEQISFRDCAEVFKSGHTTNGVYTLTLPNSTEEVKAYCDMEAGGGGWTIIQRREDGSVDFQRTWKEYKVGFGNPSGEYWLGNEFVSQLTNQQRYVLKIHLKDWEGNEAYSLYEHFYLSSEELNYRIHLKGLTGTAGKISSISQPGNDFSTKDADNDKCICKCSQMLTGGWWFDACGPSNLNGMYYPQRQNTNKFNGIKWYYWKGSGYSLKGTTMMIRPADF

T5: FLAG-tagged recombinant human Ang1 (Alexis Biochemicals) (human, UniProt Q15389 20-498, limits assumed)
T5 construct: Bought reagent; also called hAng1; FLAG-hAng1
T5 sequence (looked up): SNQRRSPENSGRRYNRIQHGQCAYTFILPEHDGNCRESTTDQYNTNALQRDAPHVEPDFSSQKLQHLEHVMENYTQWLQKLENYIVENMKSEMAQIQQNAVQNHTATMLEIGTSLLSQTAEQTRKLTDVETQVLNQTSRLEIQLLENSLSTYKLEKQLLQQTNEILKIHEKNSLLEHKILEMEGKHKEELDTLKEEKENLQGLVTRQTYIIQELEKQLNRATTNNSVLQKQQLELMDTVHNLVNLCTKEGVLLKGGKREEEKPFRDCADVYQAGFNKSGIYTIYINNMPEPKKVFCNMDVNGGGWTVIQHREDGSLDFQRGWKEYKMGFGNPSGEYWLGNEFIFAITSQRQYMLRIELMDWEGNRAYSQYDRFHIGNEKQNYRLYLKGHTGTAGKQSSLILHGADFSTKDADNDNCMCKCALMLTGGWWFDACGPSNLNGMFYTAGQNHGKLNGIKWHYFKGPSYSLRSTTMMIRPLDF


Tests used:
[1] = target: T1, recombinant mouse Ang2-FLD; experiment: SPR (Biacore T100), binder on CM5 chip, Ang2-FLD as analyte
Method: (§1) In brief, VHH and benchmark compounds are immobilized on a CM5 chip via amine coupling. […] Ang2-FLD species are allowed to associate for 2 min and to dissociate for 20 min at a flow rate of 45 μL/min. In between injections, the surfaces are regenerated with a 10 sec pulse of 25 mM NaOH and 60 sec stabilization period. Association/dissociation data are evaluated by fitting a 1:1 interaction model (Langmuir binding). The affinity constant KD is calculated from resulting association and dissociation rate constants kₐ and kd and are depicted in Table 8.

[2] = target: T6, recombinant cynomolgus Ang2-FLD (cynomolgus); experiment: as above
T6 construct: domain: FLD; also called cyno Ang2-FLD
Method: as §1

[3] = target: T2, recombinant human Ang2-FLD; experiment: as above
Method: as §1

[4] = target: T3, N-terminally FLAG-tagged mouse Ang2 …; experiment: competition ELISA, FLAG-mAng2 on coated mTie2-Fc
Method: (§2) In brief, 2 μg/mL of recombinant mouse Tie2-Fc or cyno Tie2-Fc is coated overnight at 4° C. in a 96-well MaxiSorp plate (Nunc, Wiesbaden, Germany). Coated wells are blocked with a 1% casein solution.

[5] = target: T4, N-terminally FLAG-tagged cynomolgus …; experiment: competition ELISA, FLAG-cAng2 on coated cTie2-Fc
Method: as §2

[6] = target: T3, N-terminally FLAG-tagged mouse Ang2 …; experiment: competition ELISA, FLAG-mAng2 on coated mTie2-Fc; remark: listed apart in the source
Method: as §2

[7] = target: T5, FLAG-tagged recombinant human Ang1 …; experiment: ratio of IC50 in hAng1/hTie2 ELISA to IC50 in hAng2/hTie2 ELISA
Method: In brief, 2 μg/mL of Tie2/Fc chimera (R&D Systems, Minneapolis, Minn., USA) is coated in a 96-well MaxiSorp plate (Nunc, Wiesbaden, Germany).
In brief, 2 μg/mL of recombinant human Tie2-Fc (R&D Systems, Minneapolis, Minn., USA) is coated overnight at 4° C. in a 96-well MaxiSorp plate (Nunc, Wiesbaden, Germany). Coated wells are blocked with a 1% casein solution.

Row | Binder | Kd [1] | koff [1] | kon [1] | Kd [2] | koff [2] | kon [2] | Kd [3] | koff [3] | kon [3] | IC50 [4] | IC50 [5] | IC50 [6] | hAng1/hAng2 ratio [7]
1 | VHH 1D01 (VHH, also called 001D01; not shown: C-terminal c-myc tag and His6 tag) VHH: EVQLVESGGGLVQAGGSLRLSCAASGFTFDDYALGWFRQAAGKEREGVSCIRCSDGSTYYADSVKGRFTISSDNAKNTVYLQMNSLKPEDTAVYYCAASIVPRSKLEPYEYDAWGQGTQVTVSS | 4.6 nM | 0.015 s⁻¹ | 3.3e+06 M⁻¹ s⁻¹ | 1.4 nM | 0.014 s⁻¹ | 9.9e+06 M⁻¹ s⁻¹ | 2 nM | 0.015 s⁻¹ | 7.7e+06 M⁻¹ s⁻¹ | 6.3 nM | 16.4 nM | 10 nM | > 10800
2 | VHH 7G08 (VHH, also called 007G08; not shown: C-terminal c-myc tag and His6 tag) VHH: EVQLVESGGGLVQPGGSLRLSCAASGFALDYYAIGWFRQVPGKEREGVSCISSSDGITYYVDSVKGRFTISRDNAKNTVYLQMNSLKPEDTAVYYCATDSGGYIDYDCMGLGYDYWGQGTQVTVSS | 0.18 nM | 0.00014 s⁻¹ | 810000 M⁻¹ s⁻¹ | 0.072 nM | 0.00011 s⁻¹ | 1.5e+06 M⁻¹ s⁻¹ | 0.097 nM | 0.0001 s⁻¹ | 1e+06 M⁻¹ s⁻¹ | 0.09 nM | 0.14 nM | 0.07 nM | > 2.33e+06
3 | VHH 37A09 (VHH, also called 037A09; not shown: C-terminal c-myc tag and His6 tag) VHH: EVQLMESGGGLVQPGGSLRLSCAASGFALDYYAIGWFRQVPGKEREGVSCISSSDGITYYVDSVKGRFTISRDNAKNTVYLQMNSLKPGDTAVYYCATDSGGYIDYDCMGLGYDYWGQGTQVTVSS | – | – | – | – | – | – | – | – | – | – | 0.2 nM | 0.1 nM | > 100000
